# Laboratory results reported in US20180155451A1 (published 2018).
# Biological target: T1, FcγRIa (human, UniProt P12314 16-292)
# T1 construct: extracellular domain; also called FcgRI; CD64; not shown: C-terminal His tag
# Test: SPR (Biacore), antibody captured on antigen peptide chip, FcγRIa as analyte; relative binding amount
# Method: Analysis of interaction between objective antibody and the FcγR was carried out using Biacore T100 (GE Healthcare). HBS-EP+ (GE Healthcare) was used as the running buffer, and the measurement temperature was set to 25° C. Chips produced by immobilizing the antigen peptide by the amine coupling method to a Series S Sencor Chip CM5 (GE Healthcare), or alternatively, chips produced by allowing preliminarily biotinylated antigen peptides to interact with and immobilize onto a Series S Sensor Chip SA (certified) (GE Healthcare) were used. Antibodies of interest were captured onto an antigen peptide-immobilized chip, and allowed to interact to each FcγR diluted with running buffer. To regenerate and repeatedly use the chip, the antibodies captured on the chip were washed off by reacting 10 mM glycine-HCl, pH 1.5.
# T1 sequence (P12314 16-292): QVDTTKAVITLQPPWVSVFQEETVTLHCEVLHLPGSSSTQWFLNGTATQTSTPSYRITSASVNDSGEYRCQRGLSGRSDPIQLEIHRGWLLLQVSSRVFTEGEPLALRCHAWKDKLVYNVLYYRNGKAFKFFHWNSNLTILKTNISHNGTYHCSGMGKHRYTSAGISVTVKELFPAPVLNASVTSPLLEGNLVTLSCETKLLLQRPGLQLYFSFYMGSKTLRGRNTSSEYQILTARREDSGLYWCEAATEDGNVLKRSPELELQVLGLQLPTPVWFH
row,He/Con_1a,Binder
1,105 % of control (GpH7-A5/GpH7-B3/GpL16-k0 = 100),"GpH7-A5/GpH7-B3 variant Y296_11K/GpL16-k0 (antibody, human IgG1, kappa, heterodimerized IgG1; mutation in one H chain only; also called He Ab) heavy 1: not shown heavy 2: not shown light: DIVMTQSPLSLPVTPGEPASISCQASESLVHSNRNTYLHWYLQKPGQSPQLLIYKVSNRFSGVPDRFSGSGSGTDFTLKISRVEAEDVGVYYCSQNTHVPPTFGQGTKVEIERTVAAPSVFIFPPSDEQLKSGTASVVCLLNNFYPREAKVQWKVDNALQSGNSQESVTEQDSKDSTYSLSSTLTLSKADYEKHKVYACEVTHQGLSSPVTKSFNRGEC"
2,112 % of control (GpH7-A5/GpH7-B3/GpL16-k0 = 100),"GpH7-A5/GpH7-B3 variant Y296_19Q/GpL16-k0 (antibody, human IgG1, kappa, heterodimerized IgG1; mutation in one H chain only; also called He Ab) heavy 1: not shown heavy 2: not shown light: DIVMTQSPLSLPVTPGEPASISCQASESLVHSNRNTYLHWYLQKPGQSPQLLIYKVSNRFSGVPDRFSGSGSGTDFTLKISRVEAEDVGVYYCSQNTHVPPTFGQGTKVEIERTVAAPSVFIFPPSDEQLKSGTASVVCLLNNFYPREAKVQWKVDNALQSGNSQESVTEQDSKDSTYSLSSTLTLSKADYEKHKVYACEVTHQGLSSPVTKSFNRGEC"
3,112 % of control (GpH7-A5/GpH7-B3/GpL16-k0 = 100),"GpH7-A5/GpH7-B3 variant Y300_06M/GpL16-k0 (antibody, human IgG1, kappa, heterodimerized IgG1; mutation in one H chain only; also called He Ab) heavy 1: not shown heavy 2: not shown light: DIVMTQSPLSLPVTPGEPASISCQASESLVHSNRNTYLHWYLQKPGQSPQLLIYKVSNRFSGVPDRFSGSGSGTDFTLKISRVEAEDVGVYYCSQNTHVPPTFGQGTKVEIERTVAAPSVFIFPPSDEQLKSGTASVVCLLNNFYPREAKVQWKVDNALQSGNSQESVTEQDSKDSTYSLSSTLTLSKADYEKHKVYACEVTHQGLSSPVTKSFNRGEC"
4,112 % of control (GpH7-A5/GpH7-B3/GpL16-k0 = 100),"GpH7-A5/GpH7-B3 variant Y300_14T/GpL16-k0 (antibody, human IgG1, kappa, heterodimerized IgG1; mutation in one H chain only; also called He Ab) heavy 1: not shown heavy 2: not shown light: DIVMTQSPLSLPVTPGEPASISCQASESLVHSNRNTYLHWYLQKPGQSPQLLIYKVSNRFSGVPDRFSGSGSGTDFTLKISRVEAEDVGVYYCSQNTHVPPTFGQGTKVEIERTVAAPSVFIFPPSDEQLKSGTASVVCLLNNFYPREAKVQWKVDNALQSGNSQESVTEQDSKDSTYSLSSTLTLSKADYEKHKVYACEVTHQGLSSPVTKSFNRGEC"
5,107 % of control (GpH7-A5/GpH7-B3/GpL16-k0 = 100),"GpH7-A5/GpH7-B3 variant Y300_11K/GpL16-k0 (antibody, human IgG1, kappa, heterodimerized IgG1; mutation in one H chain only; also called He Ab) heavy 1: not shown heavy 2: not shown light: DIVMTQSPLSLPVTPGEPASISCQASESLVHSNRNTYLHWYLQKPGQSPQLLIYKVSNRFSGVPDRFSGSGSGTDFTLKISRVEAEDVGVYYCSQNTHVPPTFGQGTKVEIERTVAAPSVFIFPPSDEQLKSGTASVVCLLNNFYPREAKVQWKVDNALQSGNSQESVTEQDSKDSTYSLSSTLTLSKADYEKHKVYACEVTHQGLSSPVTKSFNRGEC"
6,111 % of control (GpH7-A5/GpH7-B3/GpL16-k0 = 100),"GpH7-A5/GpH7-B3 variant Y296_20W/GpL16-k0 (antibody, human IgG1, kappa, heterodimerized IgG1; mutation in one H chain only; also called He Ab) heavy 1: not shown heavy 2: not shown light: DIVMTQSPLSLPVTPGEPASISCQASESLVHSNRNTYLHWYLQKPGQSPQLLIYKVSNRFSGVPDRFSGSGSGTDFTLKISRVEAEDVGVYYCSQNTHVPPTFGQGTKVEIERTVAAPSVFIFPPSDEQLKSGTASVVCLLNNFYPREAKVQWKVDNALQSGNSQESVTEQDSKDSTYSLSSTLTLSKADYEKHKVYACEVTHQGLSSPVTKSFNRGEC"
7,105 % of control (GpH7-A5/GpH7-B3/GpL16-k0 = 100),"GpH7-A5/GpH7-B3 variant Y296_13S/GpL16-k0 (antibody, human IgG1, kappa, heterodimerized IgG1; mutation in one H chain only; also called He Ab) heavy 1: not shown heavy 2: not shown light: DIVMTQSPLSLPVTPGEPASISCQASESLVHSNRNTYLHWYLQKPGQSPQLLIYKVSNRFSGVPDRFSGSGSGTDFTLKISRVEAEDVGVYYCSQNTHVPPTFGQGTKVEIERTVAAPSVFIFPPSDEQLKSGTASVVCLLNNFYPREAKVQWKVDNALQSGNSQESVTEQDSKDSTYSLSSTLTLSKADYEKHKVYACEVTHQGLSSPVTKSFNRGEC"
8,112 % of control (GpH7-A5/GpH7-B3/GpL16-k0 = 100),"GpH7-A5/GpH7-B3 variant Y300_20W/GpL16-k0 (antibody, human IgG1, kappa, heterodimerized IgG1; mutation in one H chain only; also called He Ab) heavy 1: not shown heavy 2: not shown light: DIVMTQSPLSLPVTPGEPASISCQASESLVHSNRNTYLHWYLQKPGQSPQLLIYKVSNRFSGVPDRFSGSGSGTDFTLKISRVEAEDVGVYYCSQNTHVPPTFGQGTKVEIERTVAAPSVFIFPPSDEQLKSGTASVVCLLNNFYPREAKVQWKVDNALQSGNSQESVTEQDSKDSTYSLSSTLTLSKADYEKHKVYACEVTHQGLSSPVTKSFNRGEC"
9,105 % of control (GpH7-A5/GpH7-B3/GpL16-k0 = 100),"GpH7-A5/GpH7-B3 variant Y296_14T/GpL16-k0 (antibody, human IgG1, kappa, heterodimerized IgG1; mutation in one H chain only; also called He Ab) heavy 1: not shown heavy 2: not shown light: DIVMTQSPLSLPVTPGEPASISCQASESLVHSNRNTYLHWYLQKPGQSPQLLIYKVSNRFSGVPDRFSGSGSGTDFTLKISRVEAEDVGVYYCSQNTHVPPTFGQGTKVEIERTVAAPSVFIFPPSDEQLKSGTASVVCLLNNFYPREAKVQWKVDNALQSGNSQESVTEQDSKDSTYSLSSTLTLSKADYEKHKVYACEVTHQGLSSPVTKSFNRGEC"
10,117 % of control (GpH7-A5/GpH7-B3/GpL16-k0 = 100),"GpH7-A5/GpH7-B3 variant Y300_03V/GpL16-k0 (antibody, human IgG1, kappa, heterodimerized IgG1; mutation in one H chain only; also called He Ab) heavy 1: not shown heavy 2: not shown light: DIVMTQSPLSLPVTPGEPASISCQASESLVHSNRNTYLHWYLQKPGQSPQLLIYKVSNRFSGVPDRFSGSGSGTDFTLKISRVEAEDVGVYYCSQNTHVPPTFGQGTKVEIERTVAAPSVFIFPPSDEQLKSGTASVVCLLNNFYPREAKVQWKVDNALQSGNSQESVTEQDSKDSTYSLSSTLTLSKADYEKHKVYACEVTHQGLSSPVTKSFNRGEC"
11,112 % of control (GpH7-A5/GpH7-B3/GpL16-k0 = 100),"GpH7-A5/GpH7-B3 variant Y300_19Q/GpL16-k0 (antibody, human IgG1, kappa, heterodimerized IgG1; mutation in one H chain only; also called He Ab) heavy 1: not shown heavy 2: not shown light: DIVMTQSPLSLPVTPGEPASISCQASESLVHSNRNTYLHWYLQKPGQSPQLLIYKVSNRFSGVPDRFSGSGSGTDFTLKISRVEAEDVGVYYCSQNTHVPPTFGQGTKVEIERTVAAPSVFIFPPSDEQLKSGTASVVCLLNNFYPREAKVQWKVDNALQSGNSQESVTEQDSKDSTYSLSSTLTLSKADYEKHKVYACEVTHQGLSSPVTKSFNRGEC"
12,106 % of control (GpH7-A5/GpH7-B3/GpL16-k0 = 100),"GpH7-A5/GpH7-B3 variant Y296_18N/GpL16-k0 (antibody, human IgG1, kappa, heterodimerized IgG1; mutation in one H chain only; also called He Ab) heavy 1: not shown heavy 2: not shown light: DIVMTQSPLSLPVTPGEPASISCQASESLVHSNRNTYLHWYLQKPGQSPQLLIYKVSNRFSGVPDRFSGSGSGTDFTLKISRVEAEDVGVYYCSQNTHVPPTFGQGTKVEIERTVAAPSVFIFPPSDEQLKSGTASVVCLLNNFYPREAKVQWKVDNALQSGNSQESVTEQDSKDSTYSLSSTLTLSKADYEKHKVYACEVTHQGLSSPVTKSFNRGEC"
13,112 % of control (GpH7-A5/GpH7-B3/GpL16-k0 = 100),"GpH7-A5/GpH7-B3 variant Y300_02A/GpL16-k0 (antibody, human IgG1, kappa, heterodimerized IgG1; mutation in one H chain only; also called He Ab) heavy 1: not shown heavy 2: not shown light: DIVMTQSPLSLPVTPGEPASISCQASESLVHSNRNTYLHWYLQKPGQSPQLLIYKVSNRFSGVPDRFSGSGSGTDFTLKISRVEAEDVGVYYCSQNTHVPPTFGQGTKVEIERTVAAPSVFIFPPSDEQLKSGTASVVCLLNNFYPREAKVQWKVDNALQSGNSQESVTEQDSKDSTYSLSSTLTLSKADYEKHKVYACEVTHQGLSSPVTKSFNRGEC"
14,111 % of control (GpH7-A5/GpH7-B3/GpL16-k0 = 100),"GpH7-A5/GpH7-B3 variant Y300_13S/GpL16-k0 (antibody, human IgG1, kappa, heterodimerized IgG1; mutation in one H chain only; also called He Ab) heavy 1: not shown heavy 2: not shown light: DIVMTQSPLSLPVTPGEPASISCQASESLVHSNRNTYLHWYLQKPGQSPQLLIYKVSNRFSGVPDRFSGSGSGTDFTLKISRVEAEDVGVYYCSQNTHVPPTFGQGTKVEIERTVAAPSVFIFPPSDEQLKSGTASVVCLLNNFYPREAKVQWKVDNALQSGNSQESVTEQDSKDSTYSLSSTLTLSKADYEKHKVYACEVTHQGLSSPVTKSFNRGEC"
15,106 % of control (GpH7-A5/GpH7-B3/GpL16-k0 = 100),"GpH7-A5/GpH7-B3 variant Y296_16H/GpL16-k0 (antibody, human IgG1, kappa, heterodimerized IgG1; mutation in one H chain only; also called He Ab) heavy 1: not shown heavy 2: not shown light: DIVMTQSPLSLPVTPGEPASISCQASESLVHSNRNTYLHWYLQKPGQSPQLLIYKVSNRFSGVPDRFSGSGSGTDFTLKISRVEAEDVGVYYCSQNTHVPPTFGQGTKVEIERTVAAPSVFIFPPSDEQLKSGTASVVCLLNNFYPREAKVQWKVDNALQSGNSQESVTEQDSKDSTYSLSSTLTLSKADYEKHKVYACEVTHQGLSSPVTKSFNRGEC"
16,113 % of control (GpH7-A5/GpH7-B3/GpL16-k0 = 100),"GpH7-A5/GpH7-B3 variant Y300_08L/GpL16-k0 (antibody, human IgG1, kappa, heterodimerized IgG1; mutation in one H chain only; also called He Ab) heavy 1: not shown heavy 2: not shown light: DIVMTQSPLSLPVTPGEPASISCQASESLVHSNRNTYLHWYLQKPGQSPQLLIYKVSNRFSGVPDRFSGSGSGTDFTLKISRVEAEDVGVYYCSQNTHVPPTFGQGTKVEIERTVAAPSVFIFPPSDEQLKSGTASVVCLLNNFYPREAKVQWKVDNALQSGNSQESVTEQDSKDSTYSLSSTLTLSKADYEKHKVYACEVTHQGLSSPVTKSFNRGEC"
17,114 % of control (GpH7-A5/GpH7-B3/GpL16-k0 = 100),"GpH7-A5/GpH7-B3 variant Y300_10E/GpL16-k0 (antibody, human IgG1, kappa, heterodimerized IgG1; mutation in one H chain only; also called He Ab) heavy 1: not shown heavy 2: not shown light: DIVMTQSPLSLPVTPGEPASISCQASESLVHSNRNTYLHWYLQKPGQSPQLLIYKVSNRFSGVPDRFSGSGSGTDFTLKISRVEAEDVGVYYCSQNTHVPPTFGQGTKVEIERTVAAPSVFIFPPSDEQLKSGTASVVCLLNNFYPREAKVQWKVDNALQSGNSQESVTEQDSKDSTYSLSSTLTLSKADYEKHKVYACEVTHQGLSSPVTKSFNRGEC"
18,112 % of control (GpH7-A5/GpH7-B3/GpL16-k0 = 100),"GpH7-A5/GpH7-B3 variant Y300_09D/GpL16-k0 (antibody, human IgG1, kappa, heterodimerized IgG1; mutation in one H chain only; also called He Ab) heavy 1: not shown heavy 2: not shown light: DIVMTQSPLSLPVTPGEPASISCQASESLVHSNRNTYLHWYLQKPGQSPQLLIYKVSNRFSGVPDRFSGSGSGTDFTLKISRVEAEDVGVYYCSQNTHVPPTFGQGTKVEIERTVAAPSVFIFPPSDEQLKSGTASVVCLLNNFYPREAKVQWKVDNALQSGNSQESVTEQDSKDSTYSLSSTLTLSKADYEKHKVYACEVTHQGLSSPVTKSFNRGEC"
19,106 % of control (GpH7-A5/GpH7-B3/GpL16-k0 = 100),"GpH7-A5/GpH7-B3 variant Y296_12R/GpL16-k0 (antibody, human IgG1, kappa, heterodimerized IgG1; mutation in one H chain only; also called He Ab) heavy 1: not shown heavy 2: not shown light: DIVMTQSPLSLPVTPGEPASISCQASESLVHSNRNTYLHWYLQKPGQSPQLLIYKVSNRFSGVPDRFSGSGSGTDFTLKISRVEAEDVGVYYCSQNTHVPPTFGQGTKVEIERTVAAPSVFIFPPSDEQLKSGTASVVCLLNNFYPREAKVQWKVDNALQSGNSQESVTEQDSKDSTYSLSSTLTLSKADYEKHKVYACEVTHQGLSSPVTKSFNRGEC"
